In experiment [1] the target is T1, mouse P2X7 (mouse, UniProt Q9Z1M0 1-595).
T1 construct: on transfected CHO or Hek293 cells, or endogenous on Yac-1 cells; also called mP2X7; mouse purinoceptor P2X7
T1 sequence: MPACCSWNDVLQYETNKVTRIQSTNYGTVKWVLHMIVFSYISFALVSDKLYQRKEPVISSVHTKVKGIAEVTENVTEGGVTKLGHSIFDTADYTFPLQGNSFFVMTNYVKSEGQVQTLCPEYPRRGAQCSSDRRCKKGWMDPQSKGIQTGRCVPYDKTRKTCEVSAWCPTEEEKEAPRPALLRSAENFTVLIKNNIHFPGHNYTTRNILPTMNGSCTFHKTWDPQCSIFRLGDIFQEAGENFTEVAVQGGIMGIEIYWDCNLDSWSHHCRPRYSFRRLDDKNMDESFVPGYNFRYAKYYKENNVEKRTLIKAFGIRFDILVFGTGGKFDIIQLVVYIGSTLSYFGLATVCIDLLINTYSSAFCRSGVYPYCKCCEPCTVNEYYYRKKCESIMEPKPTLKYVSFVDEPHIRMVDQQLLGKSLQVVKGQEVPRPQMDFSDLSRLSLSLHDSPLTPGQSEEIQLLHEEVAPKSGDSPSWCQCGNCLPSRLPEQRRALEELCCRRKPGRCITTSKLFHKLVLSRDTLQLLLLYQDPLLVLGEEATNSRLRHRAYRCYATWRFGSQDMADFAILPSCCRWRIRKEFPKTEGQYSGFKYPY
As to the kind of experiment: Table A-1 'P2X7 function'; screening on mP2X7-expressing cells.

Experiment [2] deals with T1, mouse P2X7. As to the kind of experiment: phage ELISA on fixed mP2X7-CHO vs untransfected CHO cells (minimally 2-fold). In general terms: ELISA stands for enzyme-linked immunosorbent assay.
Experimental: (§1) Sub-confluent cells were rinsed with PBS and fixed using 4% paraformaldehyde in PBS for 10 minutes at RT. Fixed cells were washed three times with PBS, and blocked with 2% BSA in PBS for 2 hours. Following blocking, 10-fold diluted culture supernatant containing phage was added and incubated for 1 hour. Cell-bound phage was detected via mouse anti-M13-HRP-conjugate (GE Healthcare, Cat nr. E2886). Rat mAb Hano43 was used as positive control.
Experiment [3] deals with T2, mouse P2X7 mutant R151A (mouse, UniProt Q9Z1M0 1-595).
T2 construct: transiently transfected Hek293 cells
T2 sequence: T1 sequence with R151A
The experiment is described as follows: flow cytometry, 1 µM Nanobody on transiently transfected Hek293 cells, normalised to Hano43 staining. Background: In flow cytometry, cells or beads pass a laser one at a time.
Experimental: For flow cytometric assays, detection of Nanobodies was performed via anti-Myc and subsequent goat anti-mouse-PE conjugate, while an estimation of P2X7 expression densities was obtained via staining with rat monoclonal Hano43 followed by secondary anti-rat-PE conjugate.

The target of experiment [4] is T3, human P2X7 (human, UniProt Q99572 1-595).
T3 construct: on transfected Hek293 cells; also called hP2X7
T3 sequence: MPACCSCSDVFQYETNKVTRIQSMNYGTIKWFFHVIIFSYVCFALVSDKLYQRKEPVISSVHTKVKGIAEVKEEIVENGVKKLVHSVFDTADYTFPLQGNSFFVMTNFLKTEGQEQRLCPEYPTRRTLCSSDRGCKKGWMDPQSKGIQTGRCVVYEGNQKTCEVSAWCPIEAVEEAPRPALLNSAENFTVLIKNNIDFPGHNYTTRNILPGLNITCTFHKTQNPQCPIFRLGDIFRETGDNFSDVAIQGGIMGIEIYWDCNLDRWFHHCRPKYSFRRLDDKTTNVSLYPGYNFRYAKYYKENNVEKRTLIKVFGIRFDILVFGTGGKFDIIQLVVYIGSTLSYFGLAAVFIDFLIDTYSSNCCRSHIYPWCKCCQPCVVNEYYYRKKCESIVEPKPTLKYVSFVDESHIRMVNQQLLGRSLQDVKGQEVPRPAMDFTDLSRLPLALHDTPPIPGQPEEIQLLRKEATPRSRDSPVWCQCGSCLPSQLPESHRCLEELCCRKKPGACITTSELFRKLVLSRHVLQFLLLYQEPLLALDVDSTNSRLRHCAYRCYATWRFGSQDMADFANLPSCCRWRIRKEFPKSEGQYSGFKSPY
The experiment is described as follows: flow cytometry, Nanobody pre-incubated with anti-Myc-FITC.

Experiment [5] has as its target T4, human P2X4 (human, UniProt Q99571 1-388).
T4 construct: whole, on cells; also called hP2X4
T4 sequence (looked up): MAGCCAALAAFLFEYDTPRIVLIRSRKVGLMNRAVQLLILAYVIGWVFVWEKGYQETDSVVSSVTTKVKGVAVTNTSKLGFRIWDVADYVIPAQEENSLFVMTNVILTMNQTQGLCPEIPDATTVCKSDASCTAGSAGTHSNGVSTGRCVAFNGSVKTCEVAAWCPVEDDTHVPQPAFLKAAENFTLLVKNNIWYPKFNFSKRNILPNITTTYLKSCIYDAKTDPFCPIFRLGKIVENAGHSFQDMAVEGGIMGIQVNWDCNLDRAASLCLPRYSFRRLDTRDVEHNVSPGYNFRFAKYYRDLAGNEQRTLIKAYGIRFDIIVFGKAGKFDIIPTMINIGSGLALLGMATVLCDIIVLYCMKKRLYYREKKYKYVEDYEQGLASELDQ
The experiment is described as above.

The target in experiment [6] is T1, mouse P2X7. As to the kind of experiment: phage ELISA on fixed mP2X7-CHO vs untransfected CHO cells.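 Further: phage culture supernatant diluted 10-fold, applied for 1 h to paraformaldehyde-fixed, BSA-blocked cells in 96-well plates, with bound phage read via HRP-linked anti-M13 antibody.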
Experimental: as §1
Experiment [7] addresses T1, mouse P2X7. The experiment is described as follows: cell-based or functional assay.

Numbering of substitutions follows the chain as printed.

B1: P2X7PMP19H4 (VHH)
VHH: EVQLVESGGGLVQAGGSLRLSCVASGRTLSTAVMGWFRQAPGKERGLVAMISWSGSMTYYAKSVKGRFTISRDNAKNTMYLQMNSLKPEDTAVYYCAADMGGGPPDGDAMPRLSSGMDYWGKGTLVTVSS
notes: family 26; on phage or c-myc/His6-tagged in assays
On to B1, for which, in experiment [1], the binding result is reported as “binds”.

B2: P2X7PMP7E8 (VHH)
VHH: EVQLVESGGGLVQAGGSLRLSCAASGRTFSSSPVGWFRQAPGKERDFVATISWNGVDTHYLDSVKGRFTISRDNALNTVHLQMHILKPEDTALYYCAASTSGSAYLPYRVYQYDSWGQGTQVTVSS
notes: family 8; on phage or c-myc/His6-tagged in assays
B2: the binding result in experiment [2] was “binds”.

B3: P2X7PMP7F5 (VHH)
VHH: B2 VHH with Y111H
notes: as for B2
With B3, the binding result in experiment [2] is on record as “binds”.

B4: P2X7PMP7H6 (VHH)
VHH: EVQLVESGGGLVQPGGSLRLSCVVSGSMYRIDNMGWYRQAPGKQRELVATVTRGDITNYADSVKGRFTIGRDNAKNTVYLQMNSLKPADTAVYYCNIDSYIIGAGVRDYWGRGTQVTVSS
notes: family 11; on phage or c-myc/His6-tagged in assays
In the case of B4, the “reduction of binding against WT mP2X7” value in experiment [3] is greater than 90%. Also, the binding result in experiment [4] is recorded as “no binding (tested: 147 nM)”. In experiment [5], the binding result is “no binding (tested: 147 nM)”. For the same molecule, the “Fold Cho P2X7/wt (phage ELISA)” value in experiment [6] was 23 fold. Also, in experiment [7], the “ATP IC50 by 2 uM NB (head prints 'mM'; ligand titration at fixed Nanobody, CD62L shedding, Yac-1 cells)” value stood at 0.494 mM; the “IC50 (nM) against 20 uM NAD (CD62L shedding, Yac-1 cells)” value was found to be 208 nM; the “IC50 (nM) against 100 uM ATP (CD62L shedding, Yac-1 cells)” value is 123 nM.

B5: P2X7PMP16F5 (VHH)
VHH: EVQLVESGGGLVQAGGSLRLSCAASGPTTFGRYTMGWFRQAPGREREFVAAISWIGGRTYYVDVVKGRFTISRDNAKKMVYLQMNSLKPDDTAVYHCAAAFQALGSPREYDYWGQGTQVTVSS
notes: family 29; on phage or c-myc/His6-tagged in assays
For B5, the binding result in experiment [1] is “binds”.

B6: P2X7PMP16G3 (VHH)
VHH: EVQLVESGGGLVQAGGSLRLSCAASGNDFARFSIDAMGWYRQAPGKQRELVATVTEDGTKNYADSVKGRATISRDDANNSMYLEMNTLKPEDTAVYYCKMGGLIDGAAPYEFWGRGTQVTVSS
notes: family 27; on phage or c-myc/His6-tagged in assays
In the case of B6, in experiment [1], the binding result was “binds”.

B7: P2X7PMP18D12 (VHH)
VHH: EVQLVESGGDLVQAGGSLKLSCVVSGVTFDDGTIGWFRQAPGKEREGIACISRVDGTTYYRDSVKGRFTVSSDSAKTTVNLQMNSLKPEDTAVYYCAADYASLCTIETGYGSLYDYWGRGTQVTVSS
notes: family 6; on phage or c-myc/His6-tagged in assays
For B7, the binding result in experiment [1] is reported as “binds”.

B8: P2X7PMP4B3 (VHH)
VHH: B7 VHH with R119K
notes: as for B7
For B8, the binding result in experiment [1] is on record as “binds”.

B9: P2X7PMP6B7 (VHH)
VHH: EVQLVESGGGLVQAGGSLRLSCVVSGRTFSAMGWFRQAPGKEREFVATVGWNPMNSYYGDSVKGRFTIFRDNAKNTVYLQMNSLKPEDTAVYYCAGSGSLLDVTSEAVYTDWGQGTQVTVSS
notes: family 16; on phage or c-myc/His6-tagged in assays
With B9, the “reduction of binding against WT mP2X7” value in experiment [3] is greater than 90%. The binding result in experiment [4] and in experiment [5] was “no binding (tested: 147 nM)” throughout. The “Fold Cho P2X7/wt (phage ELISA)” value in experiment [6] worked out at 24 fold.

B10: P2X7PMP13E9 (VHH)
VHH: EVQLVESGGGLVQPGESLRLSCTASRFDLDYYDIAWFRQAPGKEREGVSCSFTNDGSTYYADSVKGRFTMSRNNDHRTVYLQMTSLQPEDTAVYTCAVGPLTRRRQCVPGDFSMDFWGEGTLVTVSS
notes: family 22; on phage or c-myc/His6-tagged in assays
On to B10, for which the binding result in experiment [2] is “binds”.

B11: P2X7PMP15C7 (VHH)
VHH: EMQLVESGGGWVQAGGSLRLSCASSGSIFSAGAMGWYRQPAGKQRELVADITLGGSTNYADSVKGRFTISRDNAKNAVFLQMNSLKPEDTAVYYCNGLINTFARKIPRYAWGQGTQVTVSS
notes: family 28; on phage or c-myc/His6-tagged in assays
For B11, in experiment [1], the binding result is reported as “binds”.

B12: P2X7PMP6D7 (VHH)
VHH: EVQLVESGGGLVQAGGSLRLSCAASGRTFSSLAMGWLRQAPGKEREFVSGISRGGTSTYYADSVKGRLTISRDNAKNTMYLQMNSLKPEDTAVYYCAGSPVLSIVLDTRGLEYWGQGTQVTVSS
notes: family 7; on phage or c-myc/His6-tagged in assays
As to B12, the binding result in experiment [2] is reported as “binds”.

B13: P2X7PMP13F4 (VHH)
VHH: EVQLVESGGGLVQSGGSLRLSCAGSGFSYYIIGWFRQAPGKEREEVSCIRVTDGSTYHTNSVKGRFTMSRDNAENTVYLQMNSLKPEDTAVYSCATECQRWAYPNRIGARGQGTQVTVSS
notes: family 12; on phage or c-myc/His6-tagged in assays
B13: in experiment [2], the binding result is listed as “binds”.

B14: P2X7PMP4G4 (VHH)
VHH: EVQLMESGGGLVQAGGPLRLSCAASGRTVSDYGMGWFRQAPGKEREFVASINWSGTYTRYIDSVEGRFTISRDNTENTLYLQMNNLKAEDTAVYYCAYFLGPNWYSDYGRPSSYDFYGQGTQVTVSS
notes: family 4; on phage or c-myc/His6-tagged in assays
With B14, the binding result in experiment [2] is recorded as “binds”.

B15: P2X7PMP20B8 (VHH)
VHH: B14 VHH with M5V, P17S, R45C
notes: as for B14
As for B15, the binding result in experiment [2] is given as “binds”.

B16: P2X7PMP19A7 (VHH)
VHH: B14 VHH with E1K, M5V, P17S, E44L, T56I, E76K, K87R, D107N
notes: as for B14
In the case of B16, the binding result in experiment [2] is recorded as “binds”.

B17: P2X7PMP19D12 (VHH)
VHH: B14 VHH with M5V, P17S, E44L, T56I, E76K, D107N, D115G
notes: as for B14
As to B17, in experiment [2], the binding result is “binds”.

(Values after patent publication US20160264664A1 (Ablynx, published 2016).)
